This assay concerns the target T1, human CD28 on peripheral blood CD3+ T lymphocytes (human, UniProt P10747 19-220).
T1 construct: whole, on cells; Target of the receptor occupancy flow cytometry assay on blood T cells of study subjects; also called CD28 receptor
The experiment in a line: Kd recalculated in the PK/target engagement model from receptor occupancy observed by flow cytometry in humans (cohort A); not a direct in vitro measurement.

Usually Kd stands for a measure of binding affinity in units of concentration.

B1: FR104, humanized pegylated monovalent anti-CD28 Fab' antibody fragment (Fab, V domains shown)
VH: QVQLQQSGAELKKPGASVKVSCKASGYTFTEYIIHWIKLRSGQGLEWIGWFYPGSNDIQYNAQFKGKATLTADKSSSTVYMELTGLTPEDSAVYFCARRDDFSGYDALPYWGQGTLVTVSA
VL: DIQMTQSPSSLSASVGDRVTITCKTNENIYSNLAWYQQKDGKSPQLLIYAATHLVEGVPSRFSGSGSGTQYSLTISSLQPEDFGNYYCQHFWGTPCTFGGGTKLEIKR
modifications: pegylated at its C-terminus: bi-branched 2x20 kDa PEG linked to the C-terminal cysteine via a maleimide ring
notes: also called FR104-PEG; anti-CD28.3 Fab
Turning to B1, the Kd is roughly 0.3 nM.

Values taken from patent publication US20250051446A1 (OSE IMMUNOTHERAPEUTICS, published 2025).
